Values quoted from earlier work as cited in article PMC2827818.

Biological target: IFNalpha2 (Homo sapiens) (UniProt P01563)

For IFNAR2 ECD (from UniProt P48551), the Kd is given as 10 nM.
